Measured values taken from patent US20140179604A1 (U S A REPRESENTED BY THE DEPARTMENT OF VETERANS AFFAIRS, published 2014).
Like-named read-outs stand apart in the source and are kept apart here. Non-standard residues stand in square brackets, D forms with d. No end group written: not given here. *: point of attachment. Phe(F5) = N[C@@H](Cc1c(F)c(F)c(F)c(F)c1F)C(=O)O; Desaminotyrosyl = O=C(CCc1ccc(O)cc1)*; NMeY = CN[C@@H](Cc1ccc(O)cc1)C(=O)O; Agmatine = N=C(N)NCCCCN*; Nle = CCCC[C@H](N)C(=O)O; Orn = NCCC[C@H](N)C(=O)O; Abu = CC[C@H](N)C(=O)O; GABA = NCCCC(=O)O

T1: GHRH receptor (membrane receptors of human anterior pituitary cells) (human) (UniProt Q02643)
T1 sequence (looked up): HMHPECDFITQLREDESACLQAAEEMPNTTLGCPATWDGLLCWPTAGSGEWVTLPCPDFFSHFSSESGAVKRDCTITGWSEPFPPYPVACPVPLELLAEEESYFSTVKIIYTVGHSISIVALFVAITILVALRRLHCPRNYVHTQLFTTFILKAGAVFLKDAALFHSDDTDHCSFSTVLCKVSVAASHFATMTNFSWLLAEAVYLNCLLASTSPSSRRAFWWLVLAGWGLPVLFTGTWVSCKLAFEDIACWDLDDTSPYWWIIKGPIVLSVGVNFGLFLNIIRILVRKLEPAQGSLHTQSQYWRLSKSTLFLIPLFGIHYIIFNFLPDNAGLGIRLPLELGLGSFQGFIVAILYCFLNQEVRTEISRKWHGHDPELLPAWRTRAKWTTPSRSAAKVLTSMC

T2: GHRH receptor (membrane receptors of human anterior pituitary cells) (human, UniProt Q02643 23-423)
T2 construct: whole, on cells; Native receptor in a membrane fraction of purchased normal human pituitaries, not intact cells; also called hGHRH receptor; human pituitary membrane homogenates
T2 sequence (looked up): T1 sequence (looked up)

T3: GHRH receptor (membrane receptors of human anterior pituitary cells) (human), Q02643
T3 chain: T1 sequence (looked up)

B1: P-20350 [Dat^1, D-Ala^2, Gln^8, Orn^12, Abu^15, Orn^21, Nle^27, Asp^28, Agm^29]hGHRH(1-29)NH2 (peptide)
peptide: [Desaminotyrosyl][dA]DAIFTQSYR[Orn]VL[Abu]QLSAR[Orn]LLQDI[Nle]D[Agmatine]
SMILES: CCCC[C@H](NC(=O)[C@@H](NC(=O)[C@H](CC(=O)O)NC(=O)[C@H](CCC(N)=O)NC(=O)[C@H](CC(C)C)NC(=O)[C@H](CC(C)C)NC(=O)[C@H](CCCN)NC(=O)[C@H](CCCNC(=N)N)NC(=O)[C@H](C)NC(=O)[C@H](CO)NC(=O)[C@H](CC(C)C)NC(=O)[C@H](CCC(N)=O)NC(=O)[C@H](CC)NC(=O)[C@H](CC(C)C)NC(=O)[C@@H](NC(=O)[C@H](CCCN)NC(=O)[C@H](CCCNC(=N)N)NC(=O)[C@H](Cc1ccc(O)cc1)NC(=O)[C@H](CO)NC(=O)[C@H](CCC(N)=O)NC(=O)[C@@H](NC(=O)[C@H](Cc1ccccc1)NC(=O)[C@@H](NC(=O)[C@H](C)NC(=O)[C@H](CC(=O)O)NC(=O)[C@@H](C)NC(=O)CCc1ccc(O)cc1)[C@@H](C)CC)[C@@H](C)O)C(C)C)[C@@H](C)CC)C(=O)N[C@@H](CC(=O)O)C(=O)NCCCCNC(=N)N
notes: also called Peptide 20350; MR-350
B2: P-29703 [N-Me-Tyr^1, Gln^8, Orn^12, Abu^15, Orn^21, Nle^27, Gln-Gab^30]hGHRH(1-30)NH2 (peptide)
chain: [NMeY]ADAIFTQSYR[Orn]VL[Abu]QLSAR[Orn]LLQDI[Nle]SRQ[GABA]-NH2
modifications: N-terminus assumed
SMILES: CCCC[C@H](NC(=O)[C@@H](NC(=O)[C@H](CC(=O)O)NC(=O)[C@H](CCC(N)=O)NC(=O)[C@H](CC(C)C)NC(=O)[C@H](CC(C)C)NC(=O)[C@H](CCCN)NC(=O)[C@H](CCCNC(=N)N)NC(=O)[C@H](C)NC(=O)[C@H](CO)NC(=O)[C@H](CC(C)C)NC(=O)[C@H](CCC(N)=O)NC(=O)[C@H](CC)NC(=O)[C@H](CC(C)C)NC(=O)[C@@H](NC(=O)[C@H](CCCN)NC(=O)[C@H](CCCNC(=N)N)NC(=O)[C@H](Cc1ccc(O)cc1)NC(=O)[C@H](CO)NC(=O)[C@H](CCC(N)=O)NC(=O)[C@@H](NC(=O)[C@H](Cc1ccccc1)NC(=O)[C@@H](NC(=O)[C@H](C)NC(=O)[C@H](CC(=O)O)NC(=O)[C@H](C)NC(=O)[C@H](Cc1ccc(O)cc1)NC)[C@@H](C)CC)[C@@H](C)O)C(C)C)[C@@H](C)CC)C(=O)N[C@@H](CO)C(=O)N[C@@H](CCCNC(=N)N)C(=O)N[C@@H](CCC(N)=O)C(=O)NCCCC(N)=O
B3: P-29702 [Dat^1, D-Ala^2, Orn^12, Abu^15, Orn^21, Nle^27, Gln-Gab^30]hGHRH(1-30)NH2 (peptide)
peptide: [Desaminotyrosyl][dA]DAIFTNSYR[Orn]VL[Abu]QLSAR[Orn]LLQDI[Nle]SRQ[GABA]-NH2
SMILES: CCCC[C@H](NC(=O)[C@@H](NC(=O)[C@H](CC(=O)O)NC(=O)[C@H](CCC(N)=O)NC(=O)[C@H](CC(C)C)NC(=O)[C@H](CC(C)C)NC(=O)[C@H](CCCN)NC(=O)[C@H](CCCNC(=N)N)NC(=O)[C@H](C)NC(=O)[C@H](CO)NC(=O)[C@H](CC(C)C)NC(=O)[C@H](CCC(N)=O)NC(=O)[C@H](CC)NC(=O)[C@H](CC(C)C)NC(=O)[C@@H](NC(=O)[C@H](CCCN)NC(=O)[C@H](CCCNC(=N)N)NC(=O)[C@H](Cc1ccc(O)cc1)NC(=O)[C@H](CO)NC(=O)[C@H](CC(N)=O)NC(=O)[C@@H](NC(=O)[C@H](Cc1ccccc1)NC(=O)[C@@H](NC(=O)[C@H](C)NC(=O)[C@H](CC(=O)O)NC(=O)[C@@H](C)NC(=O)CCc1ccc(O)cc1)[C@@H](C)CC)[C@@H](C)O)C(C)C)[C@@H](C)CC)C(=O)N[C@@H](CO)C(=O)N[C@@H](CCCNC(=N)N)C(=O)N[C@@H](CCC(N)=O)C(=O)NCCCC(N)=O
notes: also called MR-702; Peptide 29702
B4: P-20356 [N-Me-Tyr^1, Gln^8, Orn^12, Abu^15, Orn^21, Nle^27, Asp^28, Agm^29]hGHRH(1-29)NH2 (peptide, from a related filing)
peptide: [NMeY]ADAIFTQSYR[Orn]VL[Abu]QLSAR[Orn]LLQDI[Nle]D[Agmatine]
modifications: not fully specified (C-terminus)
B5: P-25502 [Dat^1, D-Ala^2, Fpa5^6, Orn^12, Abu^15, Orn^21, Nle^27, Gab^30]hGHRH(1-30)NH2 (peptide)
peptide: [Desaminotyrosyl][dA]DAI[Phe(F5)]TNSYR[Orn]VL[Abu]QLSAR[Orn]LLQDI[Nle]SR[GABA]-NH2
SMILES: CCCC[C@H](NC(=O)[C@@H](NC(=O)[C@H](CC(=O)O)NC(=O)[C@H](CCC(N)=O)NC(=O)[C@H](CC(C)C)NC(=O)[C@H](CC(C)C)NC(=O)[C@H](CCCN)NC(=O)[C@H](CCCNC(=N)N)NC(=O)[C@H](C)NC(=O)[C@H](CO)NC(=O)[C@H](CC(C)C)NC(=O)[C@H](CCC(N)=O)NC(=O)[C@H](CC)NC(=O)[C@H](CC(C)C)NC(=O)[C@@H](NC(=O)[C@H](CCCN)NC(=O)[C@H](CCCNC(=N)N)NC(=O)[C@H](Cc1ccc(O)cc1)NC(=O)[C@H](CO)NC(=O)[C@H](CC(N)=O)NC(=O)[C@@H](NC(=O)[C@H](Cc1c(F)c(F)c(F)c(F)c1F)NC(=O)[C@@H](NC(=O)[C@H](C)NC(=O)[C@H](CC(=O)O)NC(=O)[C@@H](C)NC(=O)CCc1ccc(O)cc1)[C@@H](C)CC)[C@@H](C)O)C(C)C)[C@@H](C)CC)C(=O)N[C@@H](CO)C(=O)N[C@@H](CCCNC(=N)N)C(=O)NCCCC(N)=O
notes: also called MR-502; Peptide 25502
B6: JI-38 [Dat^1, Gln^8, Orn^12,21, Abu^15, Nle^27, Asp^28, Agm^29]hGHRH(1-29)NH2 (peptide)
peptide: [Desaminotyrosyl]ADAIFTQSYR[Orn]VL[Abu]QLSAR[Orn]LLQDI[Nle]D[Agmatine]
SMILES: CCCC[C@H](NC(=O)[C@@H](NC(=O)[C@H](CC(=O)O)NC(=O)[C@H](CCC(N)=O)NC(=O)[C@H](CC(C)C)NC(=O)[C@H](CC(C)C)NC(=O)[C@H](CCCN)NC(=O)[C@H](CCCNC(=N)N)NC(=O)[C@H](C)NC(=O)[C@H](CO)NC(=O)[C@H](CC(C)C)NC(=O)[C@H](CCC(N)=O)NC(=O)[C@H](CC)NC(=O)[C@H](CC(C)C)NC(=O)[C@@H](NC(=O)[C@H](CCCN)NC(=O)[C@H](CCCNC(=N)N)NC(=O)[C@H](Cc1ccc(O)cc1)NC(=O)[C@H](CO)NC(=O)[C@H](CCC(N)=O)NC(=O)[C@@H](NC(=O)[C@H](Cc1ccccc1)NC(=O)[C@@H](NC(=O)[C@H](C)NC(=O)[C@H](CC(=O)O)NC(=O)[C@H](C)NC(=O)CCc1ccc(O)cc1)[C@@H](C)CC)[C@@H](C)O)C(C)C)[C@@H](C)CC)C(=O)N[C@@H](CC(=O)O)C(=O)NCCCCNC(=N)N
notes: Non-coded residues replacing another residue are written X

Key:
[1] = target: T1, GHRH receptor (membrane receptors of human anterior pituitary cells) (human); assay: competition with [His1,125I-Tyr10,Nle27]hGHRH(1-32)NH2, human pituitary membranes
[2] = target: T2, GHRH receptor (membrane receptors of …); assay: competition with 125I-JV-1-42, human pituitary membranes
Excerpt: (§1) Normal human pituitaries were purchased from the National Hormone and Peptide Program (A. F. Parlow, Los Angeles, County Harbor-UCLA Medical Center, Torrance, Calif.).

[3] = target: T2, GHRH receptor (membrane receptors of …); assay: as above; remark: listed apart in the source
Description: as §1
The final binding affinities were expressed as IC₅₀ values and were calculated by using the LIGAND PC computerized curve-fitting program of Munson and Rodbard as modified by McPherson.

[4] = target: T3, GHRH receptor (membrane receptors of …); assay: as above
[5] = target: T2, GHRH receptor (membrane receptors of …); assay: competition with 125I-[His1,Nle27]hGHRH(1-32)NH2, human pituitary membranes
[6] = target: T1, GHRH receptor (membrane receptors of human anterior pituitary cells) (human); assay: as above
[7] = target: T1, GHRH receptor (membrane receptors of human anterior pituitary cells) (human); assay: competition with 125I-JV-1-42, human pituitary membranes
[8] = target: T1, GHRH receptor (membrane receptors of human anterior pituitary cells) (human); assay: as above; remark: listed apart in the source
[9] = target: T2, GHRH receptor (membrane receptors of …); assay: competition with [His1,125I-Tyr10,Nle27]hGHRH(1-32)NH2, human pituitary membranes
Excerpt: Normal human pituitaries were purchased from the National Hormone and Peptide Program (A. F. Parlow, Los Angeles, County Harbor—UCLA Medical Center, Torrance, Calif.).

Row | IC50 [2] [nM] | Relative affinity (Binding potency) vs JI-38 [2] [JI-38 = 1] | IC50 [3] [nM] | Relative affinity (Binding potency) vs GHRH [3] | Relative affinity (Binding potency) vs JI-38 [3] [JI-38 = 1] | IC50 [5] [nM] | Relative affinity (Binding potency) compared to JI-38 [5] [JI-38 = 1] | Relative affinity (Binding potency) compared to hGHRH(1-29) [5] | also measured | Molecule
1 | – | – | – | – | – | – | – | – | IC50 [1]: 1.37 nM; Relative affinity (Binding potency) vs GHRH (GHRH(1-29) = 1) [1]: 4.32 | JI-34 (peptide)
2 | – | – | – | – | – | – | – | – | IC50 [1]: 1.82 nM; Relative affinity (Binding potency) vs GHRH (GHRH(1-29) = 1) [1]: 3.25 | JI-36 (peptide)
3 | 0.52 | 8.37 | 0.04 | 102 GHRH(1-29) = 1 | 42.7 | – | – | – | – | B1
4 | – | – | – | – | – | – | – | – | IC50 [4]: 1.22 nM; Relative affinity (Binding potency) vs JI-38 [4]: 3.57 JI-38 = 1 | B2
5 | 0.86 | 5.06 | 0.05 | 81.2 GHRH(1-29) = 1 | 34.2 | 3.3 | 0.83 | 2.31 hGHRH(1-29)NH2 = 1 | – | B3
6 | – | – | – | – | – | – | – | – | IC50 [6]: 1.02 nM; Relative affinity (Binding potency) compared to JI-38 [6]: 2.69 JI-38 = 1; Relative affinity (Binding potency) compared to hGHRH(1-29) (hGHRH(1-29)NH2 = 1) [6]: 7.5; IC50 [7]: 0.01 nM; Relative affinity (Binding potency) vs GHRH (GHRH(1-29) = 1) [7]: 406; Relative affinity (Binding potency) vs JI-38 [7]: 171 JI-38 = 1; IC50 [8]: 0.27 nM; Relative affinity (Binding potency) vs JI-38 [8]: 16.1 JI-38 = 1 | B4
7 | 0.33 | 13.2 | 0.07 | 58 GHRH(1-29) = 1 | 24.4 | 2.16 | 1.27 | 3.54 hGHRH(1-29)NH2 = 1 | – | B5
8 | 4.35 | 1 | 1.71 | 2.4 GHRH(1-29) = 1 | 1 | 2.74 | 1 | 2.79 hGHRH(1-29)NH2 = 1 | IC50 [9]: 1.95 nM; Relative affinity (Binding potency) vs GHRH [9]: 3.03 GHRH(1-29) = 1; Relative affinity (Binding potency) vs JI-38 [9]: 1 JI-38 = 1 | B6
